Molecular target: alpha-synuclein (Homo sapiens, UniProt P37840)
Experiment: SPR

Binder | Kd [µM]
AQSTQ [QSTQ peptide (immobilized with added N-terminal alanine)] | 19
APTYF [PTYF peptide (immobilized with added N-terminal alanine)] | > 190

— publication PMC2244645 (2007)
